# Reference: patent publication US20170056486A1 (IMMATICS BIOTECHNOLOGIES, published 2017)
# B1: DDX5-001 (YLLPAIVHI from DDX5) (peptide)
# peptide: YLLPAIVHI
# notes: negative control peptide of the T-cell stimulations; also called 419
# B2: GLIYEETRGV (peptide)
# peptide: GLIYEETRGV
# B3: LLDHLSFINKI (peptide)
# peptide: LLDHLSFINKI
# B4: HLYNNEEQV (peptide)
# peptide: HLYNNEEQV
# B5: SLYHRVLLY (peptide)
# peptide: SLYHRVLLY
# B6: MLSDLTLQL (peptide)
# peptide: MLSDLTLQL
# B7: AQTVVVIKA (peptide)
# peptide: AQTVVVIKA
# B8: IQADDFRTL (peptide)
# peptide: IQADDFRTL
# B9: ALSDETKNNWEV (peptide)
# peptide: ALSDETKNNWEV
# B10: YVLPKLYVKL (peptide)
# peptide: YVLPKLYVKL
# B11: KLYGIEIEV (peptide)
# peptide: KLYGIEIEV
# B12: GLLWQIIKV (peptide)
# peptide: GLLWQIIKV
# B13: TLDHKPVTV (peptide)
# peptide: TLDHKPVTV
# B14: EYALLYHTL (peptide)
# peptide: EYALLYHTL
# B15: IASAIVNEL (peptide)
# peptide: IASAIVNEL
# B16: KILDLTRVL (peptide)
# peptide: KILDLTRVL
# B17: VLISSTVRL (peptide)
# peptide: VLISSTVRL
# B18: ALDDSLTSL (peptide)
# peptide: ALDDSLTSL
# B19: FLIDTSASM (peptide)
# peptide: FLIDTSASM
# B20: HLPDFVKQL (peptide)
# peptide: HLPDFVKQL
# B21: TLSSERDFAL (peptide)
# peptide: TLSSERDFAL
# B22: GLSSSSYEL (peptide)
# peptide: GLSSSSYEL
# B23: GVIETVTSL (peptide)
# peptide: GVIETVTSL
# B24: ILDETLENV (peptide)
# peptide: ILDETLENV
# B25: SLVPLQILL (peptide)
# peptide: SLVPLQILL
# B26: VLFLGKLLV (peptide)
# peptide: VLFLGKLLV
# B27: VLLRVLIL (peptide)
# peptide: VLLRVLIL
# B28: GAVAEEVLSSI (peptide)
# peptide: GAVAEEVLSSI
# B29: SSLEPQIQPV (peptide)
# peptide: SSLEPQIQPV
# B30: LLRGPPVARA (peptide)
# peptide: LLRGPPVARA
# B31: AIFDFCPSV (peptide)
# peptide: AIFDFCPSV
# B32: RLLPKVQEV (peptide)
# peptide: RLLPKVQEV
# notes: also called ZNF-003
# B33: SVDSAPAAV (peptide)
# peptide: SVDSAPAAV
# B34: FAWEPSFRDQV (peptide)
# peptide: FAWEPSFRDQV
# B35: VLLAAGPSAA (peptide)
# peptide: VLLAAGPSAA
# B36: GLMDGSPHFL (peptide)
# peptide: GLMDGSPHFL
# B37: LLYDGKLSSA (peptide)
# peptide: LLYDGKLSSA
# B38: VLGPGPPPL (peptide)
# peptide: VLGPGPPPL
# B39: SVAKTILKR (peptide)
# peptide: SVAKTILKR
# Key:
# [1] = target: T1, HLA-A*02:01 (human); experiment: biotinylated peptide-MHC complex used as negative control in T-cell priming
# T1 construct: MHC class I molecule without the peptide
# Description: 800.000 beads/200 μl were coated in 96-well plates in the presence of 4×12.5 ng different biotin-pMHC, washed and 600 ng biotin anti-CD28 were added subsequently in a volume of 200 μl. Stimulations were initiated in 96-well plates by co-incubating 1×10⁶ CD8+ T cells with 2×10⁵ washed coated beads in 200 μl TCM supplemented with 5 ng/ml IL-12 (PromoCell) for 3 days at 37° C. Half of the medium was then exchanged by fresh TCM supplemented with 80 U/ml IL-2 and incubating was continued for 4 days at 37° C. This stimulation cycle was performed for a total of three times. For the pMHC multimer readout using 8 different pMHC molecules per condition, a two-dimensional combinatorial coding approach was used as previously described (Andersen et al., 2012) with minor modifications encompassing coupling to 5 different fluorochromes. […] For analysis, a BD LSRII SORP cytometer equipped with appropriate lasers and filters was used. Peptide specific cells were calculated as percentage of total CD8+ cells. Evaluation of multimeric analysis was done using the FlowJo software (Tree Star, Oregon, USA). In vitro priming of specific multimer+ CD8+ lymphocytes was detected by comparing to negative control stimulations.
# [2] = target: T2, HLA-A*02 (human); experiment: UV-exchange ELISA (anti-b2m); yield 20%-49%
# T2 construct: Peptide-receptive MHC monomer made by UV cleavage of a UV-sensitive ligand and captured on streptavidin plates; also called HLA-A*02 MHC class I molecule; peptide-receptive MHC
# Text: (§1) Candidate peptides for T cell based therapies according to the present invention were further tested for their MHC binding capacity (affinity). The individual peptide-MHC complexes were produced by UV-ligand exchange, where a UV-sensitive peptide is cleaved upon UV-irradiation, and exchanged with the peptide of interest as analyzed. Only peptide candidates that can effectively bind and stabilize the peptide-receptive MHC molecules prevent dissociation of the MHC complexes. To determine the yield of the exchange reaction, an ELISA was performed based on the detection of the light chain (β2m) of stabilized MHC complexes. The assay was performed as generally described in Rodenko et al. (Rodenko et al., 2006).
# (§2) 96 well MAXISorp plates (NUNC) were coated over night with 2 ug/ml streptavidin in PBS at room temperature, washed 4× and blocked for 1 h at 37° C. in 2% BSA containing blocking buffer. […] Peptide-MHC monomers of the UV-exchange reaction were diluted 100 fold in blocking buffer. Samples were incubated for 1 h at 37° C., washed four times, incubated with 2 ug/ml HRP conjugated anti-β2m for 1 h at 37° C., washed again and detected with TMB solution that is stopped with […]. Absorption was measured at 450 nm.
# [3] = target: T2, HLA-A*02; experiment: UV-exchange ELISA (anti-b2m); yield >=75%
# Text: as §1, §2
# [4] = target: T2, HLA-A*02; experiment: UV-exchange ELISA (anti-b2m); yield <20%
# Text: as §1, §2
Binder,peptide exchange yield [2] [%],also measured
B1,–,binding result [1]: binds
B2,20 to 49,–
B3,20 to 49,–
B4,20 to 49,–
B5,–,peptide exchange yield [3]: ≥ 75%
B6,–,peptide exchange yield [3]: ≥ 75%
B7,–,peptide exchange yield [4]: < 20%
B8,20 to 49,–
B9,–,peptide exchange yield [3]: ≥ 75%
B10,20 to 49,–
B11,–,peptide exchange yield [3]: ≥ 75%
B12,20 to 49,–
B13,20 to 49,–
B14,20 to 49,–
B15,20 to 49,–
B16,20 to 49,–
B17,20 to 49,–
B18,20 to 49,–
B19,20 to 49,–
B20,20 to 49,–

Binder,peptide exchange yield [2] [%],also measured
B21,–,peptide exchange yield [4]: < 20%
B22,20 to 49,–
B23,20 to 49,–
B24,20 to 49,–
B25,–,peptide exchange yield [3]: ≥ 75%
B26,20 to 49,–
B27,20 to 49,–
B28,–,peptide exchange yield [4]: < 20%
B29,–,peptide exchange yield [4]: < 20%
B30,20 to 49,–
B31,–,peptide exchange yield [3]: ≥ 75%
B32,20 to 49,–
B33,20 to 49,–
B34,20 to 49,–
B35,20 to 49,–
B36,20 to 49,–
B37,20 to 49,–
B38,20 to 49,–
B39,20 to 49,–
